According to patent US20230122991A1, “GROWTH FACTOR FORMULATION FOR CONDITION ASSOCIATED WITH OTIC EVENT” (OTONOMY, INC., priority 2020, published 2023):

Tested on: adult rats following noise damage
Experiment: Noise-induced cochlear synaptopathy, IHC synaptic puncta counts (Example G)
Assay type: in vivo, rat
Conditions: each frequency region throughout the cochlea; BDNF in P407 after noise; Day 28; FIG. 13C
Protocol: Animals: Male Sprague-Dawley rats (5-6 months of age) were used for efficacy studies and females (2-3 months) were used for pharmacokinetic studies.
Formulations: Human recombinant BDNF was suspended in the thermoreversible polymer Poloxamer 407 (16%) to reach a range of BDNF concentrations.
Intratympanic (IT) injection: Formulations were administered under anesthesia as a single IT injection (20 μl) through the tympanic membrane into the middle ear, targeting the round window membrane (RWM).
Noise-induced cochlear synaptopathy: Rats (n=44 per treatment group) received a single acoustic trauma (105 dB SPL, 8-16 kHz, 1 h) under anesthesia. 24 hours later (Day 1) animals received a single bilateral IT injection of the treatment regimens. Auditory function (ABR and ABR wave 1 amplitude) was monitored at day 1 and then every 7 days for 28 days. At termination (Day 28), cochleae were collected and assessed for evidence of cochlear synaptopathy (IHC synaptic puncta counts).
Immunohistochemistry: Dissected cochleae were immunostained with antibodies against presynaptic (CtBP2) and postsynaptic (GluR2) proteins and MyosinVIIa to label hair cells. Cochleae were then frequency mapped and high-magnification images were obtained with a Zeiss LSM-880 confocal microscope and imaged at an interval of 0.35 μm.
Intratympanic BDNF repairs cochlear synaptopathy in adult rats. […]

B1: brain-derived neurotrophic factor (protein, UniProt P23560 129-247, looked up)
Neurotrophic factor BDNF: HSDPARRGELSVCDSISEWVTAADKKTAVDMSGGTVTVLEKVPVSKGQLKQYFYETKCNPMGYTKEGCRGIDKRHWNSQCRTTQSYVRALTMDSKKRIGWRFIRIDTSCVCTLTIKRGR
modifications: Neurotrophic factor BDNF in 16% poloxamer 407 gel
notes: Human recombinant BDNF
  synaptic puncta (co-expression of CtBp2 and GluR2) per inner hair cell: increased
